Data from paper PMC9482650, “Quantitative fragmentomics allow affinity mapping of interactomes” (Nature Communications, 2022).

T1: LRRC7, Q96NW7
T1 sequence (Q96NW7 1440-1537, limits assumed, looked up): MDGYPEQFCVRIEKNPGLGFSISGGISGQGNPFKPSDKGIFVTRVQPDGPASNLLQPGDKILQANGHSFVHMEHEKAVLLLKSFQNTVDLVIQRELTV

T2: MPP7, Q5T2T1
T2 sequence (Q5T2T1 134-230, limits assumed, looked up): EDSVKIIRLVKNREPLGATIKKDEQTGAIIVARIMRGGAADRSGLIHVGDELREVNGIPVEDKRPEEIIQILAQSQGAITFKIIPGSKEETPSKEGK

T3: RADIL, Q96JH8
T3 sequence (Q96JH8 971-1071, limits assumed, looked up): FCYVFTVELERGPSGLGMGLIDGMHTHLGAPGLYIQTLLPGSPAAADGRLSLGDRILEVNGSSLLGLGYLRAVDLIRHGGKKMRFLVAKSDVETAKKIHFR

T4: MPDZ_10, O75970
T4 sequence (O75970 1624-1722, limits assumed, looked up): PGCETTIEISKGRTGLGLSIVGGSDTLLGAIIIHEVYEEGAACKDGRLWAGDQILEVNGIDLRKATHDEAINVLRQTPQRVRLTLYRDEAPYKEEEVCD

T5: MPP6, Q9NZW5
T5 sequence (Q9NZW5 125-219, limits assumed, looked up): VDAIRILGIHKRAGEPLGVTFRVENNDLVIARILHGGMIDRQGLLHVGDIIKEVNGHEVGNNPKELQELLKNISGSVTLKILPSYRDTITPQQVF

T6: GRIP1_7, Q9Y3R0
T6 sequence (Q9Y3R0 999-1096, limits assumed, looked up): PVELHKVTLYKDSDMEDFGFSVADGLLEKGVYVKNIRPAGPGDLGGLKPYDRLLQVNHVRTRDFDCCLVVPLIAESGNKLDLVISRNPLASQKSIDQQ

T7: MPDZ_5, O75970
T7 sequence (O75970 695-796, limits assumed, looked up): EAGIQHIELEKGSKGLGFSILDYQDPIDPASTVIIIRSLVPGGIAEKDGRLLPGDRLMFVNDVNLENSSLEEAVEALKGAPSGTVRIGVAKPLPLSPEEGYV

T8: GRIP1_2, Q9Y3R0
T8 sequence (Q9Y3R0 145-248, limits assumed, looked up): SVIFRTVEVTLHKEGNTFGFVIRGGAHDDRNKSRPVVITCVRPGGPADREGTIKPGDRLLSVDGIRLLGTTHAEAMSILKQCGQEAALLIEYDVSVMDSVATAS

T9: DFNB31_1, Q9P202
T9 sequence (Q9P202 135-233, limits assumed, looked up): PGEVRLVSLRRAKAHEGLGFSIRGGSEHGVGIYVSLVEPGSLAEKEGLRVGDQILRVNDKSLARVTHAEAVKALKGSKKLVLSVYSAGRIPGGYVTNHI

T10: RAPGEF6, Q8TEU7
T10 sequence (Q8TEU7 525-625, limits assumed, looked up): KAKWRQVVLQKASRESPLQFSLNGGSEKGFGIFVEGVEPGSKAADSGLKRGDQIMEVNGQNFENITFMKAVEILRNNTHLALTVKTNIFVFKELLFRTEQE

T11: CARD11, Q9BXL7
T11 sequence (Q9BXL7 662-765, limits assumed, looked up): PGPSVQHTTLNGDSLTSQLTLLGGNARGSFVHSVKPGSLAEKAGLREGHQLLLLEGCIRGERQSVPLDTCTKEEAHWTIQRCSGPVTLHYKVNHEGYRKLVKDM


The binders below were run against T1, LRRC7, Q96NW7 (assay: holdup assay). Details: plain residues with an end cap or a label only (N-terminal biotin on a linker: ado-ado).
Design: key: below the threshold = too weak to quantify, mostly under pKd 3.1 to 4

Row | Binder | pKd
1 | RRLPGKETMA [GRIK2, Q13002] | below the threshold
2 | RRISSLESEV [GRIN2C, Q14957] | 4.05

Each binder was assayed against FRMPD2_2, Q68DX3 (assay: holdup assay). Details: plain residues with an end cap or a label only (N-terminal biotin on a linker: ado-ado).
Design: key: below the threshold = too weak to quantify, mostly under pKd 3.1 to 4

Sequence of FRMPD2_2, Q68DX3 (Q68DX3 944-1038): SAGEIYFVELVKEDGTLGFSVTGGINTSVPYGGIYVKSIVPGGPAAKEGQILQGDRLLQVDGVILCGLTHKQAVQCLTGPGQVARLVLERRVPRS

Row | Binder | pKd
3 | RRLPGKETMA [GRIK2, Q13002] | below the threshold
4 | RRISSLESEV [GRIN2C, Q14957] | 3.85

Each binder was assayed against T2, MPP7, Q5T2T1 (assay: holdup assay). Details: plain residues with an end cap or a label only (N-terminal biotin on a linker: ado-ado).
Design: key: below the threshold = too weak to quantify, mostly under pKd 3.1 to 4

Row | Binder | pKd
5 | RRLPGKETMA [GRIK2, Q13002] | below the threshold
6 | RRISSLESEV [GRIN2C, Q14957] | below the threshold

These binders were tested against HTRA2, O43464 (assay: holdup assay). Details: plain residues with an end cap or a label only (N-terminal biotin on a linker: ado-ado).
Design: key: below the threshold = too weak to quantify, mostly under pKd 3.1 to 4

Sequence of HTRA2, O43464 (O43464 355-458): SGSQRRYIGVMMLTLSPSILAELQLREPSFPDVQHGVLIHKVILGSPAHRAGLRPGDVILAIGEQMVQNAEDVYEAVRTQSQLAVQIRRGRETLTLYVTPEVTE

Row | Binder | pKd
7 | RRLPGKETMA [GRIK2, Q13002] | below the threshold
8 | RRISSLESEV [GRIN2C, Q14957] | below the threshold

The binders below were run against T3, RADIL, Q96JH8 (assay: holdup assay). Details: plain residues with an end cap or a label only (N-terminal biotin on a linker: ado-ado).
Design: key: below the threshold = too weak to quantify, mostly under pKd 3.1 to 4

Row | Binder | pKd
9 | RRLPGKETMA [GRIK2, Q13002] | below the threshold
10 | RRISSLESEV [GRIN2C, Q14957] | below the threshold

These binders were tested against IL16_1, Q14005 (assay: holdup assay). Details: plain residues with an end cap or a label only (N-terminal biotin on a linker: ado-ado).
Design: key: below the threshold = too weak to quantify, mostly under pKd 3.1 to 4

Sequence of IL16_1, Q14005 (Q14005 210-306): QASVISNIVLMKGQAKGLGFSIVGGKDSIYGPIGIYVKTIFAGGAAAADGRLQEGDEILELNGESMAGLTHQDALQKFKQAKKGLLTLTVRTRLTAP

Row | Binder | pKd
11 | RRLPGKETMA [GRIK2, Q13002] | below the threshold
12 | RRISSLESEV [GRIN2C, Q14957] | 4.55

Each binder was assayed against T4, MPDZ_10, O75970 (assay: holdup assay). Details: plain residues with an end cap or a label only (N-terminal biotin on a linker: ado-ado).
Design: key: below the threshold = too weak to quantify, mostly under pKd 3.1 to 4

Row | Binder | pKd
13 | RRLPGKETMA [GRIK2, Q13002] | below the threshold
14 | RRISSLESEV [GRIN2C, Q14957] | below the threshold

What follows are binders tested against LDB3, O75112 (assay: holdup assay). Details: plain residues with an end cap or a label only (N-terminal biotin on a linker: ado-ado).
Design: key: below the threshold = too weak to quantify, mostly under pKd 3.1 to 4

Sequence of LDB3, O75112 (O75112 1-94): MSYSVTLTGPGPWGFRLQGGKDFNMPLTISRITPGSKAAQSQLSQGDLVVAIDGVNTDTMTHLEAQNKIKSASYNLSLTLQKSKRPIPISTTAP

Row | Binder | pKd
15 | RRLPGKETMA [GRIK2, Q13002] | below the threshold
16 | RRISSLESEV [GRIN2C, Q14957] | below the threshold

The binders below were run against MAGI2_5, Q86UL8 (assay: holdup assay). Details: plain residues with an end cap or a label only (N-terminal biotin on a linker: ado-ado).
Design: key: below the threshold = too weak to quantify, mostly under pKd 3.1 to 4

Sequence of MAGI2_5, Q86UL8 (Q86UL8 915-1017): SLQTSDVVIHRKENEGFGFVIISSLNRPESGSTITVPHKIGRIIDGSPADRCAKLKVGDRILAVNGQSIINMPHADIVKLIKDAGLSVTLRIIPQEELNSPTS

Row | Binder | pKd
17 | RRLPGKETMA [GRIK2, Q13002] | below the threshold
18 | RRISSLESEV [GRIN2C, Q14957] | 4.96

These binders were tested against T5, MPP6, Q9NZW5 (assay: holdup assay). Details: plain residues with an end cap or a label only (N-terminal biotin on a linker: ado-ado).
Design: key: below the threshold = too weak to quantify, mostly under pKd 3.1 to 4

Row | Binder | pKd
19 | RRLPGKETMA [GRIK2, Q13002] | below the threshold
20 | RRISSLESEV [GRIN2C, Q14957] | below the threshold

These binders were tested against Inadl_2, Q8NI35 (assay: holdup assay). Details: plain residues with an end cap or a label only (N-terminal biotin on a linker: ado-ado).
Design: key: below the threshold = too weak to quantify, mostly under pKd 3.1 to 4

Sequence of Inadl_2, Q8NI35 (Q8NI35 238-335): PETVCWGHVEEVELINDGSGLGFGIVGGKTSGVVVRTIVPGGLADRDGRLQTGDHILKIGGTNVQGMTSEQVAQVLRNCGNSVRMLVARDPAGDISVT

Row | Binder | pKd
21 | RRLPGKETMA [GRIK2, Q13002] | below the threshold
22 | RRISSLESEV [GRIN2C, Q14957] | below the threshold

What follows are binders tested against FRMPD3, Q5JV73 (assay: holdup assay). Details: plain residues with an end cap or a label only (N-terminal biotin on a linker: ado-ado).
Design: key: below the threshold = too weak to quantify, mostly under pKd 3.1 to 4

Sequence of FRMPD3, Q5JV73 (Q5JV73 12-100): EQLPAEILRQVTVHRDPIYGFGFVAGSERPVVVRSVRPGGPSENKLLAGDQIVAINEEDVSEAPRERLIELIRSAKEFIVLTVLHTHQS

Row | Binder | pKd
23 | RRLPGKETMA [GRIK2, Q13002] | below the threshold
24 | RRISSLESEV [GRIN2C, Q14957] | below the threshold

The binders below were run against T6, GRIP1_7, Q9Y3R0 (assay: holdup assay). Details: plain residues with an end cap or a label only (N-terminal biotin on a linker: ado-ado).
Design: key: below the threshold = too weak to quantify, mostly under pKd 3.1 to 4

Row | Binder | pKd
25 | RRLPGKETMA [GRIK2, Q13002] | below the threshold
26 | RRISSLESEV [GRIN2C, Q14957] | below the threshold

The binders below were run against T7, MPDZ_5, O75970 (assay: holdup assay). Details: plain residues with an end cap or a label only (N-terminal biotin on a linker: ado-ado).
Design: key: below the threshold = too weak to quantify, mostly under pKd 3.1 to 4

Row | Binder | pKd
27 | RRLPGKETMA [GRIK2, Q13002] | below the threshold
28 | RRISSLESEV [GRIN2C, Q14957] | below the threshold

The binders below were run against MAST1, Q9Y2H9 (assay: holdup assay). Details: plain residues with an end cap or a label only (N-terminal biotin on a linker: ado-ado).
Design: key: below the threshold = too weak to quantify, mostly under pKd 3.1 to 4

Sequence of MAST1, Q9Y2H9 (Q9Y2H9 962-1065): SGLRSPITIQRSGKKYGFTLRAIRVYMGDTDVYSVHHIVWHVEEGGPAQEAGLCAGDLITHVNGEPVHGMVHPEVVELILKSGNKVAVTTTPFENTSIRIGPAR

Row | Binder | pKd
29 | RRLPGKETMA [GRIK2, Q13002] | below the threshold
30 | RRISSLESEV [GRIN2C, Q14957] | 4.54

The binders below were run against T8, GRIP1_2, Q9Y3R0 (assay: holdup assay). Details: plain residues with an end cap or a label only (N-terminal biotin on a linker: ado-ado).
Design: key: below the threshold = too weak to quantify, mostly under pKd 3.1 to 4

Row | Binder | pKd
31 | RRLPGKETMA [GRIK2, Q13002] | below the threshold
32 | RRISSLESEV [GRIN2C, Q14957] | below the threshold

These binders were tested against T9, DFNB31_1, Q9P202 (assay: holdup assay). Details: plain residues with an end cap or a label only (N-terminal biotin on a linker: ado-ado).
Design: key: below the threshold = too weak to quantify, mostly under pKd 3.1 to 4

Row | Binder | pKd
33 | RRLPGKETMA [GRIK2, Q13002] | below the threshold
34 | RRISSLESEV [GRIN2C, Q14957] | 3.67

What follows are binders tested against NHERF4_1, Q86UT5-2 (assay: holdup assay). Details: plain residues with an end cap or a label only (N-terminal biotin on a linker: ado-ado).
Design: key: below the threshold = too weak to quantify, mostly under pKd 3.1 to 4

Sequence of NHERF4_1, Q86UT5-2 (Q86UT5 other isoform, or with tags, fused parts or gaps): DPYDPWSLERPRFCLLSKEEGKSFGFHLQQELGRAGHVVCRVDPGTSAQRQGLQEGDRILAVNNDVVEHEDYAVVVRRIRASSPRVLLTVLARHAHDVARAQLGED

Row | Binder | pKd
35 | RRLPGKETMA [GRIK2, Q13002] | below the threshold
36 | RRISSLESEV [GRIN2C, Q14957] | 3.71

Each binder was assayed against T10, RAPGEF6, Q8TEU7 (assay: holdup assay). Details: plain residues with an end cap or a label only (N-terminal biotin on a linker: ado-ado).
Design: key: below the threshold = too weak to quantify, mostly under pKd 3.1 to 4

Row | Binder | pKd
37 | RRLPGKETMA [GRIK2, Q13002] | 3.53
38 | RRISSLESEV [GRIN2C, Q14957] | below the threshold

Each binder was assayed against FRMPD4, Q14CM0 (assay: holdup assay). Details: plain residues with an end cap or a label only (N-terminal biotin on a linker: ado-ado).
Design: key: below the threshold = too weak to quantify, mostly under pKd 3.1 to 4

Sequence of FRMPD4, Q14CM0 (Q14CM0 67-160): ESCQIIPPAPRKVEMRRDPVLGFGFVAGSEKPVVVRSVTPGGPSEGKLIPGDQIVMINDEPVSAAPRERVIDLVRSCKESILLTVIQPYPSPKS

Row | Binder | pKd
39 | RRLPGKETMA [GRIK2, Q13002] | below the threshold
40 | RRISSLESEV [GRIN2C, Q14957] | below the threshold

Each binder was assayed against GRIP2_6, Q9C0E4 (assay: holdup assay). Details: plain residues with an end cap or a label only (N-terminal biotin on a linker: ado-ado).
Design: key: below the threshold = too weak to quantify, mostly under pKd 3.1 to 4

Sequence of GRIP2_6, Q9C0E4 (Q9C0E4 648-740): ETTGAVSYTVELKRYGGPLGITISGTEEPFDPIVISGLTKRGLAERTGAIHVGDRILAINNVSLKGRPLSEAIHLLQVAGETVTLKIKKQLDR

Row | Binder | pKd
41 | RRLPGKETMA [GRIK2, Q13002] | below the threshold
42 | RRISSLESEV [GRIN2C, Q14957] | below the threshold

These binders were tested against T11, CARD11, Q9BXL7 (assay: holdup assay). Details: plain residues with an end cap or a label only (N-terminal biotin on a linker: ado-ado).
Design: key: below the threshold = too weak to quantify, mostly under pKd 3.1 to 4

Row | Binder | pKd
43 | RRLPGKETMA [GRIK2, Q13002] | below the threshold
44 | RRISSLESEV [GRIN2C, Q14957] | below the threshold

These binders were tested against DLG4_2, P78352 (assay: holdup assay). Details: plain residues with an end cap or a label only (N-terminal biotin on a linker: ado-ado).
Design: key: below the threshold = too weak to quantify, mostly under pKd 3.1 to 4

Sequence of DLG4_2, P78352 (P78352 155-259): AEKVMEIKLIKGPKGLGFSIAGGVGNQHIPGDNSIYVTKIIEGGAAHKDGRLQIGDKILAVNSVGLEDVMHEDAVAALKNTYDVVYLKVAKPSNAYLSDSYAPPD

Row | Binder | pKd
45 | RRLPGKETMA [GRIK2, Q13002] | below the threshold
46 | RRISSLESEV [GRIN2C, Q14957] | 5.33

What follows are binders tested against GOPC, Q9HD26 (assay: holdup assay). Details: plain residues with an end cap or a label only (N-terminal biotin on a linker: ado-ado).
Design: key: below the threshold = too weak to quantify, mostly under pKd 3.1 to 4

Row | Binder | pKd
47 | RRLPGKETMA [GRIK2, Q13002] | below the threshold
48 | RRISSLESEV [GRIN2C, Q14957] | below the threshold

These binders were tested against Inadl_4, Q8NI35 (assay: holdup assay). Details: plain residues with an end cap or a label only (N-terminal biotin on a linker: ado-ado).
Design: key: below the threshold = too weak to quantify, mostly under pKd 3.1 to 4

Sequence of Inadl_4, Q8NI35 (Q8NI35 547-651): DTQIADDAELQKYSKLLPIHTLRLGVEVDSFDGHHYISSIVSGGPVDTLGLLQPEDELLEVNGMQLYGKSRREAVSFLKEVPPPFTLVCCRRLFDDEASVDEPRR

Row | Binder | pKd
49 | RRLPGKETMA [GRIK2, Q13002] | below the threshold
50 | RRISSLESEV [GRIN2C, Q14957] | below the threshold

Each binder was assayed against MAGI3_2, Q5TCQ9 (assay: holdup assay). Details: plain residues with an end cap or a label only (N-terminal biotin on a linker: ado-ado).
Design: key: below the threshold = too weak to quantify, mostly under pKd 3.1 to 4

Sequence of MAGI3_2, Q5TCQ9 (Q5TCQ9 398-503): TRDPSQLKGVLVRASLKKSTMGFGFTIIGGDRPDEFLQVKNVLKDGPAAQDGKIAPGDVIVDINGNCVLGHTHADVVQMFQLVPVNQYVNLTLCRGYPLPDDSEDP

Row | Binder | pKd
51 | RRLPGKETMA [GRIK2, Q13002] | below the threshold
52 | RRISSLESEV [GRIN2C, Q14957] | 4.96
